Assay results from FireProtDB (doi:10.1021/bi801431x).
Where “and” joins values, the source holds several entries; their conditions need not be identical. Identical values can stand only once.

Conditions: Escherichia coli (strain K12); pH 7.5; 25 °C; Urea; Fluorescence; Potassium phosphate 20 mM; reversible: Yes; whole UniProt chain shown

B1: Aspartate aminotransferase wild type, P00509 (protein)
chain: MFENITAAPADPILGLADLFRADERPGKINLGIGVYKDETGKTPVLTSVKKAEQYLLENETTKNYLGIDGIPEFGRCTQELLFGKGSALINDKRARTAQTPGGTGALRVAADFLAKNTSVKRVWVSNPSWPNHKSVFNSAGLEVREYAYYDAENHTLDFDALINSLNEAQAGDVVLFHGCCHNPTGIDPTLEQWQTLAQLSVEKGWLPLFDFAYQGFARGLEEDAEGLRAFAAMHKELIVASSYSKNFGLYNERVGACTLVAADSETVDRAFSQMKAAIRANYSNPPAHGASVVATILSNDALRAIWEQELTDMRQRIQRMRQLFVNTLQEKGANRDFSFIIKQNGMFSFSGLTKEQVLRLREEFGVYAVASGRVNVAGMTPDNMAPLCEAIVAVL
denaturant midpoint (higher = more stable): 3.89 M and 5.02 M
